Test results published in patent publication US10941200B2, “TREM2 cleavage modulators and uses thereof” (Deutsches Zentrum Für Neurodegenerative Erkrankungen EV, priority 2016, dated 2021).
Entries after “also recorded” stand apart in the source; their conditions may differ.

Columns and labels:
Assay type in all cases: cell-based
[1] = molecular target: T1, human TREM2 (Homo sapiens, UniProt Q9NZC2); assay: Anti-HA immunoblotting of soluble TREM2 (sTREM2) from conditioned media of HEK cells stably overexpressing wt TREM2; details: antibody 50 μg/mL, 24 hrs; FIG. 7A top blot
T1 construct: HEK293 Flp-In cells either expressing human full-length TREM2 or empty vector; expressed in transfected cells
T1 sequence (Q9NZC2 19-230): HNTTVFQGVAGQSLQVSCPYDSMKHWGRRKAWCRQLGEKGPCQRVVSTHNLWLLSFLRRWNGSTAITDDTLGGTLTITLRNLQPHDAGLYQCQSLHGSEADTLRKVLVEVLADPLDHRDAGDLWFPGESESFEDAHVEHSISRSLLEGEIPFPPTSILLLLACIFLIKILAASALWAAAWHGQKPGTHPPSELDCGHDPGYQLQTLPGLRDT
Experimental: (§1) HEK293 Flp-In cells stably overexpressing TREM2 or TREM2-DAP12 cDNA constructs were seeded at a density of 1.5×10^5/cm^2 and medium changed 48 h post seeding. Conditioned medium was collected after 18-20 h, immediately cooled down on ice, centrifuged at 13,000 rpm for 20 min at 4° C. and supernatants frozen at −20° C. until analysis. Supernatants were directly subjected to standard 15% SDS-PAGE. To prepare membrane fractions, cells were washed twice with ice-cold PBS, resuspended in ice-cold hypotonic buffer (0.01 M Tris, pH 7; 1 mM EDTA; 1 mM EGTA), freshly supplemented with protease inhibitor (Sigma) and incubated on ice for 30 min. After snap freezing in liquid
(§2) using enhanced chemiluminescence technique (Pierce). Quantification of immunoblots was performed on a LAS-4000 image reader and analyzed using the Multi-Gauge V3.0 software (both Fujifilm Life Science).
1*10^6-1.5*10^6 cells were seeded in the 6-well format. 24 hours later fresh medium was added to the cells. Antibody clones as generated by Dr. Feederle (Helmholtz Center Munich, Core Facility Monoclonal Antibody Development) were added simultaneously, i.e. for overnight treatment (about 24 hrs), at a final concentration of 50 μg/mL. On the next day, conditioned media and cells were collected and processed as described under “Preparation of conditioned media, cell lysates, and immunoblotting”. […]

[2] = molecular target: T1, human TREM2; assay: Immunoblotting of mature TREM2 in membrane fractions of HEK cells stably overexpressing wt TREM2; details: antibody 50 μg/mL, 24 hrs
Experimental: as §1
nitrogen and thawing, the disrupted cells were centrifuged at 13,000 rpm for 45 min at 4° C.
The resulting pellet was resuspended in STE lysis buffer (150 mM NaCl, 50 mM Tris-HCl,
pH 7.6, 2 mM EDTA, 1% Triton-X 100), incubated for 20 min on ice and clarified by centrifugation at 13,000 rpm for 30 min at 4° C. Protein concentrations were measured using the BCA method, equal amounts of protein were mixed with Laemmli sample buffer, supplemented with beta mercaptoethanol, separated by SDS-PAGE and transferred onto polyvinylidene difluoride membranes (Hybond P; Amersham Biosciences, Aylesbury, UK). Bound antibodies were visualized by corresponding HRP-conjugated secondary antibodies
as §2
(§3) 1*10^6-1.5*10^6 cells were seeded in the 6-well format. 24 hours later fresh medium was added to the cells. Antibody clones as generated by Dr. Feederle (Helmholtz Center Munich, Core Facility Monoclonal Antibody Development) were added simultaneously, i.e. for overnight treatment (about 24 hrs), at a final concentration of 50 μg/mL. On the next day, conditioned media and cells were collected and processed as described under “Preparation of conditioned media, cell lysates, and immunoblotting”.
(§4) ADAM10 inhibitor G1254023X (5 μM final concentration) and a control monoclonal antibody, which is specific for the C terminus of human TREM2, were used as positive and negative controls, respectively.

[3] = molecular target: T1, human TREM2; assay: sTREM2 ELISA of conditioned media from HEK293 Flp-In cells stably overexpressing wt TREM2 (ectodomain shedding)
Experimental: as §3, §4
For quantitation of levels of sTREM2 in cell culture supernatants, an ELISA for human sTREM2 was established using the Meso Scale Discovery SECTOR Imager 2400. Streptavidin-coated 96-well plates were blocked overnight at 4° C. in 0.5% bovine serum albumin (BSA) and 0.05% Tween 20 in PBS (pH 7.4) (blocking buffer). For detection of human sTREM2, plates were shaken for 1 hour at room temperature with biotinylated polyclonal goat anti-human TREM2 capture antibody (0.25 mg/ml; R&D Systems) diluted in blocking buffer. Plates were washed subsequently four times with 0.05% Tween 20 in PBS (washing buffer) and incubated for 2 hours at room temperature with samples diluted 1:4 in 0.25% BSA and 0.05% Tween 20 in PBS (pH 7.4) (assay buffer) supplemented with protease inhibitors (Sigma). Recombinant human TREM2 protein (Holzel Diagnostika) was diluted in assay buffer in a two-fold serial dilution and used for the standard curve (concentration range, 4000 to […]). Plates were washed three times for 5 min with washing buffer before incubation for 1 hour at room temperature with mouse monoclonal anti-TREM2 antibody (1 mg/ml; Santa Cruz Biotechnology; B-3) diluted in blocking buffer. After three additional washing steps, plates were incubated with a SULFO-TAG-labeled anti-mouse secondary antibody (1:1000; Meso Scale Discovery) and incubated for 1 hour in the dark. Last, plates were washed three times with washing buffer followed by two washing steps in PBS and developed by adding Meso Scale Discovery Read buffer. The light emission at 620 nm after electrochemical stimulation was measured using the Meso Scale Discovery SECTOR Imager 2400 reader. To quantify the levels of sTREM2 secreted from HEK293 Flp-In cells, conditioned media from biological replicates were analyzed in duplicates. The sTREM2 standard curves were generated using the MasterPlex ReaderFit software (MiraiBio Group, Hitachi Solutions America) through a five-parameter logistic fit. Levels of sTREM2 were subsequently normalized to levels of immature TREM2 as quantified from Western Blots.

B1: clone 14D8: rat monoclonal antibody against TREM2 cleavage site peptide; heavy chain variable SEQ ID NO: 24, light chain variable SEQ ID NO: 34 (antibody, V domains shown)
VH: EVKLLESGGGLVQPGGSMRLSCAASGFTFTDFYMNWIRQPAGKAPEWLGLIRNKANGYTTVYNPSVKGRFTISRDNTQNMLYLQMNTLRGEDTATYYCARIGINNGGSLDYWGQGVMVTVSS
VL: DILINQSPASLTVSTGEKVTMSCRSSQSLLYSEKNQDYLAWYQQKPGQFPKLLIYGASYRHTGVPDRFTGSGSGTDFTLTISSVQAEDLADYYCEQTYSYPYTFGAGTKLELK
modifications: Clone 14D8 variable region of the heavy chain; Clone 14D8 variable region of the light chain
- extent of ectodomain cleavage (sTREM2 immunoblot), result in words [1]: strongly reduce the extent of ectodomain cleavage
- increase in levels of mature TREM2 in the membrane fraction (immunoblot), result in words ([2]; FIG. 7A bottom blot): comparable to if not higher than the increase as seen with the ADAM10 inhibitor G1254023X
- levels of mature TREM2 in the membrane fraction (quantified immunoblots), result in words ([2]; normalized to immature TREM2, FIG. 7C): increases in levels of mature TREM2 comparable to or even higher than the ADAM10 inhibitor G1254023X; also recorded: increases in levels of mature TREM2 in the membrane fraction
- sTREM2 levels (ELISA), result in words ([3]; antibody 50 μg/mL, 24 hrs, normalized to immature TREM2, FIG. 7B): decreases in sTREM2 levels comparable to the ADAM10 inhibitor G1254023X; also recorded: decreased levels of sTREM2
- activity to inhibit TREM2 cleavage (summary statement) ([3]; ranking among the antibody clones of the Examples): very high activity to inhibit TREM2 cleavage
